The values that follow come from patent US20250011363A1, “OPTIMIZED SHORTENED PEPTIDE THAT BINDS TO ACETYLCHOLINE RECEPTOR, AND USE THEREOF” (SKINMED CO., LTD., priority 2021, published 2025).

The assay has as its target acetylcholine receptor. In words: SPR, AchR immobilized on chip, peptide 10 uM. Background: Surface plasmon resonance follows binding to a sensor surface in real time, without labels.

As for RGQYK [5mer-457], the Binding affinity (RU) was determined as 59 RU. In turn, RWYLR [5mer-480] registered a Binding affinity (RU) of 75 RU. The figure for RLLQK [5mer-189] is 65 RU.

Molecule RQFLR [5mer-474] came in with a Binding affinity (RU) of 80 RU. RVLSK [5mer-182] yielded a Binding affinity (RU) of 70 RU. The same measure for RLYTK [5mer-179]: 55 RU. The same measure for RWVCR [5mer-187]: 74 RU; for RWLLK [5mer-490]: 60 RU; for RRFCK [5mer-475]: 56 RU.

Molecule RGQRR [5mer-159] yielded a Binding affinity (RU) of 73 RU. The same measure for KGRCR [5mer-157]: 78 RU; for RLQQR [5mer-460]: 74 RU. The figure for KRVYR [5mer-183] is 64 RU.

RSRRR [5mer-172] had a Binding affinity (RU) of 82 RU. The same measure for KSFQR [5mer-166]: 55 RU. Consider RQYYK [5mer-479], for which the Binding affinity (RU) was 70 RU. The figure for RSFQK [5mer-484] is 51 RU; for RRYRR [5mer-185] it is 86 RU.

With RSISR [5mer-483], the Binding affinity (RU) was 51 RU.

Take RRYRK [5mer-472]: the Binding affinity (RU) is 55 RU.

Regarding RWQSK [5mer-462], the Binding affinity (RU) turned out to be 69 RU. The figure for RRVLK [5mer-178] is 87 RU. In the case of RLVQR [5mer-473], the Binding affinity (RU) is 75 RU. The figure for RWLQR [5mer-486] is 53 RU; for RGYQR [5mer-162] it is 51 RU; for KRQRK [5mer-485] it is 58 RU. KSRRR [5mer-469] had a Binding affinity (RU) of 69 RU. The same measure for KSLCK [5mer-163]: 61 RU; for KSYSR [5mer-489]: 63 RU. The figure for KQFCK [5mer-482] is 75 RU. The same measure for RGVTR [5mer-464]: 57 RU. The molecule RSICK [5mer-476] yielded a Binding affinity (RU) of 70 RU.

As for KQRSK [5mer-470], the Binding affinity (RU) turned out to be 57 RU. The figure for RSIRR [5mer-160] is 53 RU; for RWRSR [5mer-190] it is 84 RU; for KSICK [5mer-164] it is 54 RU. The figure for KRLQR [5mer-186] is 64 RU; for RRFLK [5mer-458] it is 65 RU; for KLQCR [5mer-184] it is 68 RU. The figure for RGYLR [5mer-471] is 69 RU; for RLVTK [5mer-487] it is 62 RU. Regarding RLICK [5mer-170], the Binding affinity (RU) stood at 62 RU. The figure for KLFSK [5mer-168] is 84 RU. The same measure for KSIQR [5mer-171]: 55 RU. RWQTK [5mer-158] yielded a Binding affinity (RU) of 65 RU. The same measure for RLVCK [5mer-456]: 52 RU. Molecule RWLYK [5mer-455] showed a Binding affinity (RU) of 61 RU.

Molecule RVRCR [5mer-191] yielded a Binding affinity (RU) of 75 RU. Consider KWYTK [5mer-463], for which the Binding affinity (RU) is 52 RU.

As for RWVRK [5mer-177], the Binding affinity (RU) worked out at 77 RU. RSLLK [5mer-181] displayed a Binding affinity (RU) of 72 RU. RRIYR [5mer-467] displayed a Binding affinity (RU) of 83 RU.

Turning to RRVRK [5mer-466], the Binding affinity (RU) is 53 RU.

Molecule RVLYK [5mer-176] registered a Binding affinity (RU) of 52 RU. The molecule KQLLK [5mer-461] came in with a Binding affinity (RU) of 74 RU.

As to KGLRK [5mer-156], the Binding affinity (RU) came out at 85 RU. The same measure for KGYSR [5mer-477]: 58 RU; for RSVSR [5mer-173]: 59 RU; for KWVTK [5mer-161]: 52 RU.

Turning to RVQTK [5mer-478], the Binding affinity (RU) was 75 RU. The figure for KQRYR [5mer-180] is 74 RU; for KWFSK [5mer-188] it is 82 RU; for KVRSR [5mer-488] it is 58 RU.

In turn, RWFRK [5mer-465] returned a Binding affinity (RU) of 57 RU. The same measure for KGRQR [5mer-174]: 59 RU. KQFRK [5mer-167] returned a Binding affinity (RU) of 64 RU.

In the case of KSYCK [5mer-481], the Binding affinity (RU) was found to be 78 RU. Regarding RWYRK [5mer-169], the Binding affinity (RU) was 61 RU. Regarding RWQLK [5mer-175], the Binding affinity (RU) is 63 RU.

Molecule RSQLR [5mer-459] gave a Binding affinity (RU) of 76 RU. The same measure for RWQCK [5mer-468]: 54 RU; for KWRSK [5mer-165]: 56 RU.
